Some targets named below: AHNAK1, Q09666; TJP1_3, Q07157; GRID2IP_1, A4D2P6; Inadl_5, Q8NI35; MAST2, Q6P0Q8; PICK1, Q9NRD5; MAGI2_5, Q86UL8; FRMPD2_2, Q68DX3; LNX1_3, Q8TBB1; GORASP2, Q9H8Y8; FRMPD3, Q5JV73.
What all share (assay): holdup assay
Holding throughout (set-up): key: below the threshold = too weak to quantify, mostly under pKd 3.1 to 4

Another assay has as its target T1, RAPGEF6, Q8TEU7.
T1 sequence (Q8TEU7 525-625, limits assumed, looked up): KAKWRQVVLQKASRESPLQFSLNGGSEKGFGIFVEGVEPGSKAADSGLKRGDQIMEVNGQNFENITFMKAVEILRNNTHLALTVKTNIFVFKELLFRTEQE

A further assay has as its target T2, DFNB31_3, Q9P202.
T2 sequence (Q9P202 811-907, limits assumed, looked up): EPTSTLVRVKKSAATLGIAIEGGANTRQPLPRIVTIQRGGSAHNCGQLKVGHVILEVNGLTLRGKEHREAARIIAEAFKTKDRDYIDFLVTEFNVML

For another assay, the target named is T3, SNTB1, Q13884.
T3 sequence (Q13884 107-205, limits assumed, looked up): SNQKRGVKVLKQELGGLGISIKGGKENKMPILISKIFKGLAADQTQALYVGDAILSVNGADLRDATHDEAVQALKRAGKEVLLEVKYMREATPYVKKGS

For the next assay, the target named is T4, LIN7C, Q9NUP9.
T4 sequence (Q9NUP9 88-185, limits assumed, looked up): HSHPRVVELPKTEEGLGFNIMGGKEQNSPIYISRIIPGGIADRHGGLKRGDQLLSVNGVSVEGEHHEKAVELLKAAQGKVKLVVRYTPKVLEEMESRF

The target in a further assay is T5, GRIP1_7, Q9Y3R0.
T5 sequence (Q9Y3R0 999-1096, limits assumed, looked up): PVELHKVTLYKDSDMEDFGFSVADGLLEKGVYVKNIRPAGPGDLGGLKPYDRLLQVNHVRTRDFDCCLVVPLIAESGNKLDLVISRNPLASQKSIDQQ

A further assay concerns the target T6, SYNJ2BP, P57105.
T6 sequence (P57105 8-110, limits assumed, looked up): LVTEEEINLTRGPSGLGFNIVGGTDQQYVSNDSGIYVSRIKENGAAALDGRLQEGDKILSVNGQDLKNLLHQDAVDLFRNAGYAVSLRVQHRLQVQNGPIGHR

For a further assay, the target named is T7, NHERF3_3, Q5T2W1.
T7 sequence (Q5T2W1 238-333, limits assumed, looked up): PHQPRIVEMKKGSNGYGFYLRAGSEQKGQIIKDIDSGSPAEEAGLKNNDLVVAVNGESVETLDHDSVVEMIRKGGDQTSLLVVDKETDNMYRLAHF

The target in a further assay is T8, GRIP1_4, Q9Y3R0.
T8 sequence (Q9Y3R0 467-571, limits assumed, looked up): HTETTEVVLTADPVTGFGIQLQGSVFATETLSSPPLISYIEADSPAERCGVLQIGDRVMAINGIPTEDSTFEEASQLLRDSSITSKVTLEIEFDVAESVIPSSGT

The target in a further assay is T9, SNTG1, Q9NSN8.
T9 sequence (Q9NSN8 52-150, limits assumed, looked up): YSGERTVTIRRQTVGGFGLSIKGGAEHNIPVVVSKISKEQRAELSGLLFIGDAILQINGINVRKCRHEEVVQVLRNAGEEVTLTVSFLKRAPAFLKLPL

For the next assay, the target named is T10, MPDZ_5, O75970.
T10 sequence (O75970 695-796, limits assumed, looked up): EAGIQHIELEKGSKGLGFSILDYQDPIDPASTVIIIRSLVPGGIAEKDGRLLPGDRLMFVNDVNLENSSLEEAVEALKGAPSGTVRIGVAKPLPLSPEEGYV

For a further assay, the target named is T11, PTPN13_1, Q12923.
T11 sequence (Q12923 1088-1188, limits assumed, looked up): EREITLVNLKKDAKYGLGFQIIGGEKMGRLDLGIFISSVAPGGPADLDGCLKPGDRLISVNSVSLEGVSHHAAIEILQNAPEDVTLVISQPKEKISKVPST

In the next assay the target is T12, PDZD2_2, O15018.
T12 sequence (O15018 329-429, limits assumed, looked up): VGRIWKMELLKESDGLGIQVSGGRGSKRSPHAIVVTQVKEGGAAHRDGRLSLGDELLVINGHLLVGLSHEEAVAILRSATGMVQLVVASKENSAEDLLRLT

The target in another assay is T13, LIN7A, O14910.
T13 sequence (O14910 103-200, limits assumed, looked up): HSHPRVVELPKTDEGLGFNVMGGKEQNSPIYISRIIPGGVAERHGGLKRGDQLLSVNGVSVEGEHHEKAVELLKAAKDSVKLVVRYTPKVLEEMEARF

Setting [1] is: modified: acetyl on K at position -1 from the C-terminal residue.
The mark [2] stands for this setting: plain residues with an end cap or a label only (N-terminal biotin on a linker: ado-ado).
Where [3] appears, read: modified: phospho on S at position -3 from the C-terminal residue.

For four molecules, pKd results are on record in publication PMC9482650, “Quantitative fragmentomics allow affinity mapping of interactomes” (Nature Communications, 2022).

Chain of FRMPD2_2, Q68DX3 (Q68DX3 944-1038): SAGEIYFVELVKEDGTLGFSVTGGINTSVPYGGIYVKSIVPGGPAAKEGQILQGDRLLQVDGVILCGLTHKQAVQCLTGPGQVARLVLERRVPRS
Chain of Inadl_5, Q8NI35 (Q8NI35 673-780): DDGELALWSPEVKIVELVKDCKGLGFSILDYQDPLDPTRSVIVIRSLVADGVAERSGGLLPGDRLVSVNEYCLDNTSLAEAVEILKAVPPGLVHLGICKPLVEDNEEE
Chain of TJP1_3, Q07157 (Q07157 416-512): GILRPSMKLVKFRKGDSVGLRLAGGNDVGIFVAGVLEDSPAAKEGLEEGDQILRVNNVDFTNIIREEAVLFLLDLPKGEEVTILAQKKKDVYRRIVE
Chain of MAST2, Q6P0Q8 (Q6P0Q8 1099-1202): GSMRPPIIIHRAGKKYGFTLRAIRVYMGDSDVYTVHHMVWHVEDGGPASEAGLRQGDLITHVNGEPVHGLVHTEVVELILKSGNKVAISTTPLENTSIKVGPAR
Chain of GRID2IP_1, A4D2P6 (A4D2P6 1-87): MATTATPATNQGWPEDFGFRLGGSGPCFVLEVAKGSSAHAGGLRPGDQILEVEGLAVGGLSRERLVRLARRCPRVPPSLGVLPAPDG
Chain of AHNAK1, Q09666 (Q09666 4-100): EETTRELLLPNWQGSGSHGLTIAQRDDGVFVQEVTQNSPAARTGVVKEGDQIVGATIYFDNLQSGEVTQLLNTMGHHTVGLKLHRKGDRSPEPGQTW
Chain of FRMPD3, Q5JV73 (Q5JV73 12-100): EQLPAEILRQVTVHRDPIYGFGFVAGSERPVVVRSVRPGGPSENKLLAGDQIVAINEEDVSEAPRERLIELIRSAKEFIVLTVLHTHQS
Chain of LNX1_3, Q8TBB1 (Q8TBB1 500-596): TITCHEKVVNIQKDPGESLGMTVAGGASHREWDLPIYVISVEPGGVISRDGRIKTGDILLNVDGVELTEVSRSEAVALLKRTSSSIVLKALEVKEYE
Chain of MAGI2_5, Q86UL8 (Q86UL8 915-1017): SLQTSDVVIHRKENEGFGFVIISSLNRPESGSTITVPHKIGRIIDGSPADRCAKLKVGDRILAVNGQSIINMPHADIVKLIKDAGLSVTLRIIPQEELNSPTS
Chain of PICK1, Q9NRD5 (Q9NRD5 17-115): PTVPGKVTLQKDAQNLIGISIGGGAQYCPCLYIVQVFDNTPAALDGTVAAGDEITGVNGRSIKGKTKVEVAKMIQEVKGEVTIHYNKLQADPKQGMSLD

Turning to DEDQHTQITKV [PTEN_Ac, P60484], the pKd – broadly, −log10 of the Kd, conventionally taken in molar units – was “below the threshold” in the assay with RAPGEF6, Q8TEU7 (setting [1]); “below the threshold” in the assay with AHNAK1, Q09666 (setting [1]); 4.25 with DFNB31_3, Q9P202 (setting [1]); 4.79 in the assay with SNTB1, Q13884 (setting [1]); “below the threshold” with LIN7C, Q9NUP9 (setting [1]); “below the threshold” with GRIP1_7, Q9Y3R0 (setting [1]). Moreover, the pKd result with TJP1_3, Q07157 (setting [1]) was “below the threshold”; with GRID2IP_1, A4D2P6 (setting [1]), “below the threshold”; in the assay with SYNJ2BP, P57105 (setting [1]) it was 3.61; with NHERF3_3, Q5T2W1 (setting [1]) it was “below the threshold”; with Inadl_5, Q8NI35 (setting [1]) it was “below the threshold”; in the assay with MAST2, Q6P0Q8 (setting [1]) it was 5.14. Also, the pKd in the assay with PICK1, Q9NRD5 (setting [1]) was 3.75; with MAGI2_5, Q86UL8 (setting [1]), 4.88; in the assay with GRIP1_4, Q9Y3R0 (setting [1]), “below the threshold”; with FRMPD2_2, Q68DX3 (setting [1]), 4.58; with SNTG1, Q9NSN8 (setting [1]) it was 4.45; with MPDZ_5, O75970 (setting [1]), “below the threshold”. Also, the negative logarithm of the Kd (pKd) entry with LNX1_3, Q8TBB1 (setting [1]) was “below the threshold”; with GORASP2, Q9H8Y8 (setting [1]), 4.06; with PTPN13_1, Q12923 (setting [1]), “below the threshold”; with PDZD2_2, O15018 (setting [1]), 4.22; in the assay with LIN7A, O14910 (setting [1]), “below the threshold”; with FRMPD3, Q5JV73 (setting [1]) it was “below the threshold”.

On to LETREPTNTL [GRIP1, Q9Y3R0], for which the pKd entry with RAPGEF6, Q8TEU7 (setting [2]) was “below the threshold”; with AHNAK1, Q09666 (setting [2]) it was “below the threshold”; with DFNB31_3, Q9P202 (setting [2]), 3.96; with SNTB1, Q13884 (setting [2]) it was “below the threshold”; with LIN7C, Q9NUP9 (setting [2]) it was 4.07; with GRIP1_7, Q9Y3R0 (setting [2]), “below the threshold”. For the same molecule, the pKd entry is “below the threshold” with TJP1_3, Q07157 (setting [2]); “below the threshold” with GRID2IP_1, A4D2P6 (setting [2]); “below the threshold” with SYNJ2BP, P57105 (setting [2]); “below the threshold” in the assay with NHERF3_3, Q5T2W1 (setting [2]); “below the threshold” in the assay with Inadl_5, Q8NI35 (setting [2]); 3.92 with MAST2, Q6P0Q8 (setting [2]). Besides, the pKd result in the assay with PICK1, Q9NRD5 (setting [2]) is given as “below the threshold”; in the assay with MAGI2_5, Q86UL8 (setting [2]), “below the threshold”; with GRIP1_4, Q9Y3R0 (setting [2]), “below the threshold”; with FRMPD2_2, Q68DX3 (setting [2]) it was “below the threshold”; with SNTG1, Q9NSN8 (setting [2]), “below the threshold”; with MPDZ_5, O75970 (setting [2]), “below the threshold”. In addition, the pKd result with LNX1_3, Q8TBB1 (setting [2]) was “below the threshold”; in the assay with GORASP2, Q9H8Y8 (setting [2]) it was “below the threshold”; with PTPN13_1, Q12923 (setting [2]), “below the threshold”; with PDZD2_2, O15018 (setting [2]), “below the threshold”; with LIN7A, O14910 (setting [2]) it was “below the threshold”; with FRMPD3, Q5JV73 (setting [2]) it was “below the threshold”.

Take RRVRKLPSTTL [RPS6KA1_-3P, Q15418]: the pKd result in the assay with RAPGEF6, Q8TEU7 (setting [3]) is “below the threshold”; with AHNAK1, Q09666 (setting [3]) it was “below the threshold”; in the assay with DFNB31_3, Q9P202 (setting [3]), “below the threshold”; in the assay with SNTB1, Q13884 (setting [3]), 4.39; with LIN7C, Q9NUP9 (setting [3]), “below the threshold”; with GRIP1_7, Q9Y3R0 (setting [3]), 3.68. The negative-log Kd (pKd) result with TJP1_3, Q07157 (setting [3]) was “below the threshold”; with GRID2IP_1, A4D2P6 (setting [3]), “below the threshold”; with SYNJ2BP, P57105 (setting [3]), 4.48; with NHERF3_3, Q5T2W1 (setting [3]), “below the threshold”; in the assay with Inadl_5, Q8NI35 (setting [3]), “below the threshold”; in the assay with MAST2, Q6P0Q8 (setting [3]), 4.21. Further, the pKd entry in the assay with PICK1, Q9NRD5 (setting [3]) is “below the threshold”; with MAGI2_5, Q86UL8 (setting [3]) it was “below the threshold”; in the assay with GRIP1_4, Q9Y3R0 (setting [3]), “below the threshold”; with FRMPD2_2, Q68DX3 (setting [3]), “below the threshold”; in the assay with SNTG1, Q9NSN8 (setting [3]), 3.94; with MPDZ_5, O75970 (setting [3]), “below the threshold”. In addition, the pKd entry in the assay with LNX1_3, Q8TBB1 (setting [3]) is “below the threshold”; with GORASP2, Q9H8Y8 (setting [3]), 3.56; in the assay with PTPN13_1, Q12923 (setting [3]), “below the threshold”; with PDZD2_2, O15018 (setting [3]), “below the threshold”; in the assay with LIN7A, O14910 (setting [3]) it was “below the threshold”; with FRMPD3, Q5JV73 (setting [3]) it was “below the threshold”.

As to TMQMSLKDLL [GLA, P06280], the negative-log Kd (pKd) with RAPGEF6, Q8TEU7 (setting [2]) was 3.69; with AHNAK1, Q09666 (setting [2]), “below the threshold”; with DFNB31_3, Q9P202 (setting [2]), 4.07; with SNTB1, Q13884 (setting [2]), “below the threshold”; with LIN7C, Q9NUP9 (setting [2]) it was “below the threshold”; in the assay with GRIP1_7, Q9Y3R0 (setting [2]), “below the threshold”. For the same molecule, the pKd was 3.61 with TJP1_3, Q07157 (setting [2]); “below the threshold” in the assay with GRID2IP_1, A4D2P6 (setting [2]); “below the threshold” with SYNJ2BP, P57105 (setting [2]); “below the threshold” in the assay with NHERF3_3, Q5T2W1 (setting [2]); “below the threshold” in the assay with Inadl_5, Q8NI35 (setting [2]); 4.19 with MAST2, Q6P0Q8 (setting [2]). The pKd result is “below the threshold” with PICK1, Q9NRD5 (setting [2]); “below the threshold” in the assay with MAGI2_5, Q86UL8 (setting [2]); “below the threshold” with GRIP1_4, Q9Y3R0 (setting [2]); “below the threshold” with FRMPD2_2, Q68DX3 (setting [2]); 3.5 in the assay with SNTG1, Q9NSN8 (setting [2]); “below the threshold” in the assay with MPDZ_5, O75970 (setting [2]). In addition, the pKd result with LNX1_3, Q8TBB1 (setting [2]) is “below the threshold”; in the assay with GORASP2, Q9H8Y8 (setting [2]), 3.51; with PTPN13_1, Q12923 (setting [2]) it was “below the threshold”; with PDZD2_2, O15018 (setting [2]) it was “below the threshold”; in the assay with LIN7A, O14910 (setting [2]), “below the threshold”; with FRMPD3, Q5JV73 (setting [2]) it was “below the threshold”.
